Test results reported in patent US20230365647A1 (published 2023).

T1: Mannose receptor C type 1 on human monocyte-derived dendritic cells (Homo sapiens, UniProt P22897 19-1456)
T1 construct: also called MRC-1
T1 sequence: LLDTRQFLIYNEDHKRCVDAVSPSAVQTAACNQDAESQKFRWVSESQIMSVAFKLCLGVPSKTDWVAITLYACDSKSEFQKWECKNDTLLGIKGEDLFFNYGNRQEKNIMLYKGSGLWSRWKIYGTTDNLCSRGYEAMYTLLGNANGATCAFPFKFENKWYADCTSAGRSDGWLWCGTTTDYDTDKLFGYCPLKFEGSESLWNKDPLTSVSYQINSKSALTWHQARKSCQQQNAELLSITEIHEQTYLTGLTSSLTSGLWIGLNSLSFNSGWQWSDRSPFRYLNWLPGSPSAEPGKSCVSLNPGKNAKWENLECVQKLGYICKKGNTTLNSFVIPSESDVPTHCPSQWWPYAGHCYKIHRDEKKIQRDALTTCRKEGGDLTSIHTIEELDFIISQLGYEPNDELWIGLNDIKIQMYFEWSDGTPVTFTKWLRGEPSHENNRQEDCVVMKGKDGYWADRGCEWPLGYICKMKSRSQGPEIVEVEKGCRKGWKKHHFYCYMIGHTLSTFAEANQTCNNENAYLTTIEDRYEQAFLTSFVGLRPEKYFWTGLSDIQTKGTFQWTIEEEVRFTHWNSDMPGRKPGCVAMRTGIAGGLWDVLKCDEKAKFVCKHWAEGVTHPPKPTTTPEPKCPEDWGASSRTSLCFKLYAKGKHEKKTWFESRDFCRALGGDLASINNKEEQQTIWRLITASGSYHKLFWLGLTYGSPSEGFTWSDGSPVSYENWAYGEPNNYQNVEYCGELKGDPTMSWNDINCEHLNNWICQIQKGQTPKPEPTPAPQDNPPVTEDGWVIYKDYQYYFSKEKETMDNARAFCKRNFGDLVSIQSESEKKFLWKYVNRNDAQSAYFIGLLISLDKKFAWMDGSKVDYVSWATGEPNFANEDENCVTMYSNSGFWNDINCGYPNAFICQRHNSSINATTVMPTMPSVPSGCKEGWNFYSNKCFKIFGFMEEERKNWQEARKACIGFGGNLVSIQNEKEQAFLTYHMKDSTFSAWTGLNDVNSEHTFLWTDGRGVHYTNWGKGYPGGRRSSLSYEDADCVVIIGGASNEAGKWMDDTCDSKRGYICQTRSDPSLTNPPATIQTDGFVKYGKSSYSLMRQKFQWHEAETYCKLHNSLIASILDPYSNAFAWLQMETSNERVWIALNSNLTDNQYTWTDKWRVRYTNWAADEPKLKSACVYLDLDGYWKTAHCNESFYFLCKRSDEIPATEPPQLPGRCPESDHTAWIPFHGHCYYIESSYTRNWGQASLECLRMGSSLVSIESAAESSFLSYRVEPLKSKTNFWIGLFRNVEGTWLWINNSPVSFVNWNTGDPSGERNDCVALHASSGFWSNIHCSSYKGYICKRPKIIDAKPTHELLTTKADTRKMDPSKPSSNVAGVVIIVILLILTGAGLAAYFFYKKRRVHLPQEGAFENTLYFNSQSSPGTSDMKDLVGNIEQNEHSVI


Molecular target: T1, Mannose receptor C type 1 on human …
Assay: immunofluorescence co-localization in human DCs

Row | Binder | binding result
1 | LLO (W489F) toxoid (other) KDASAFNKENSISSMAPPASPPASPKTPIEKKHADEIDKYIQGLDYNKNNVLVYHGDAVTNVPPRKGYKDGNEYIVVEKKKKSINQNNADIQVVNAISSLTYPGALVKANSELVENQPDVLPVKRDSLTLSIDLPGMTNQDNKIVVKNATKSNVNNAVNTLVERWNEKYAQAYPNVSAKIDYDDEMAYSESQLIAKFGTAFKAVNNSLNVNFGAISEGKMQEEVISFKQIYYNVNVNEPTRPSRFFGKAVTKEQLQALGVNAENPPAYISSVAYGRQVYLKLSTNSHSTKVKAAFDAAVSGKSVSGDVELTNIIKNSSFKAVIYGGSAKDEVQIIDGNLGDLRDILKKGATFNRETPGVPIAYTTNFLKDNELAVIKNNSEYIETTSKAYTDGKINIDHSGGYVAQFNISWDEINYDPEGNEIVQHKNWSENNKSKLAHFTSSIYLPGNARNINVYAKECTGLAFEWWRTVIDDRNLPLVKNRNISIWGTTLYPKYSNSVDNPIE | no binding (tested: 0.2 µg/ml)
2 | Pneumolysin (purified recombinant) (other, also called PLY; Ply) ANKAVNDFILAMNYDKKKLLTHQGESIENRFIKEGNQLPDEFVVIERKKRSLSTNTSDISVTATNDSRLYPGALLVVDETLLENNPTLLAVDRAPMTYSIDLPGLASSDSFLQVEDPSNSSVRGAVNDLLAKWHQDYGQVNNVPARMQYEKITAHSMEQLKVKFGSDFEKTGNSLDIDFNSVHSGEKQIQIVNFKQIYYTVSVDAVKNPGDVFQDTVTVEDLKQRGISAERPLVYISSVAYGRQVYLKLETTSKSDEVEAAFEALIKGVKVAPQTEWKQILDNTEVKAVILGGDPSSGARVVTGKVDMVEDLIQEGSRFTADHPGLPISYTTSFLRDNVVATFQNSTDYVETKVTAYRNGDLLLDHSGAYVAQYYITWNELSYDHQGKEVLTPKAWDRNGQDLTAHFTTSIPLKGNVRNLSVKIRECTGLAWEWWRTVYEKTDLPLVRKRTISIWGTTLYPQVEDKVEND | binds
